This is an account of results in patent publication US20250352661A1 (MYTHIC THERAPEUTICS, published 2025).

Residue numbers refer to the chain shown, from its start. In names and notes the source's numbering stands.

The chains are these.
B1: MYT8094 (antibody, IgG1, V domains shown)
VH: EVQLVESGGGLVQPGGSLRLSCTASGFSFSSSHWICWVRQAPGKGLEWVGCIYAGSIGSTYYASWAKGRFTISRDTSKNTVYLQMNSLRAEDTAVYYCARAPNDIYNYYFNLWGQGTLVTVSS
VL: EIVMTQSPSTLSASVGDRVIITCQASENIYNYLAWYQQKPGKAPKLLIYYASTLASGVPSRFSGSGSGAEFTLTISSLQPDDFATYYCQSGYVSKSSTFGQGTKLTVL
notes: Humanized 29F1; also called hu29F1 Parental; hu29F1
B2: MYT9731 (antibody, V domains shown)
VH: B1 VH
VL: B1 VL with N28E
notes: LC descriptor N28E; also called hu29F1 LC Glu Var
B3: MYT9521 (antibody, V domains shown)
VH: B1 VH
VL: B1 VL with T53D
notes: LC descriptor T66D; also called hu29F1 LC Asp Var
B4: MYT9523 (antibody, V domains shown)
VH: B1 VH
VL: B1 VL with A55D
notes: LC descriptor A68D; also called hu29F1 LC Asp Var
B5: MYT9776 (antibody, V domains shown)
VH: EVQLVESGGGLVQPGGSLRLSCTASGFSFSGHYWICWVRQAPGKGLEWVGCIHGGSHDITYYASWAKGRFTISRDTSKNTVYLQKTSLRAEDTAVYYCASDTSYTAYGNFYFNLWGQGTLVTVSS
VL: EIVMTQSPSPLSASVGDRVIITCQSSQSVLNNNWLAWYQQKPGKAPKLLIYDASSLASGVPSRFSGSGSGAEFTLTISSLQPDDFATYYCQGEFSCGSADCNAFGQGTKLEIK
notes: LC EIK); also called hu24D9 HC Dev Combos, +LC FR4 EIK
B6: MYT7913 (antibody, V domains shown)
VH: QQQLVESGGGLVKPGASLTLTCKASGFSFSGSYWICWVRQAPGKGLEWIGCINGGSLDITYYASWAKGRFTISKASSTTVTLQKTSLTAADTATYFCASDHSYTAYGNFYFNLWGPGTLVTVSS
VL: AQVLTQTASPVSAAVGGTVTINCQSSQSVLNNNWLAWYQQKPGQPPKLLIYDASSLASGVPSRFKGSGSGTQFTLTISDLESDDAATYYCQGEFSCGSADCNAFGGGTEVVVKG
notes: rabbit 24D9 VH T101H; chimeric, human constant regions
B7: MYT7916 (antibody, V domains shown)
VH: B6 VH with H101T, T104H
VL: B6 VL
notes: rabbit 24D9 VH T104H; chimeric, human constant regions
B8: MYT7922 (antibody, V domains shown)
VH: B6 VH with H101T, Y110H
VL: B6 VL
notes: rabbit 24D9 VH Y110H; chimeric, human constant regions
B9: MYT7921 (antibody, V domains shown)
VH: B6 VH with H101T, F109H
VL: B6 VL
notes: rabbit 24D9 VH F109H; chimeric, human constant regions
B10: MYT7923 (antibody, V domains shown)
VH: B6 VH with H101T, F111H
VL: B6 VL
notes: rabbit 24D9 VH F111H; chimeric, human constant regions
B11: MYT7917 (antibody, V domains shown)
VH: B6 VH with H101T, A105H
VL: B6 VL
notes: rabbit 24D9 VH A105H; chimeric, human constant regions
B12: MYT7924 (antibody, V domains shown)
VH: B6 VH with H101T, N112H
VL: B6 VL
notes: rabbit 24D9 VH N112H; chimeric, human constant regions
B13: MYT7918 (antibody, V domains shown)
VH: B6 VH with H101T, Y106H
VL: B6 VL
notes: rabbit 24D9 VH Y106H; chimeric, human constant regions
B14: MYT7914 (antibody, V domains shown)
VH: B6 VH with H101T, S102H
VL: B6 VL
notes: rabbit 24D9 VH S102H; chimeric, human constant regions
B15: MYT7915 (antibody, V domains shown)
VH: B6 VH with H101T, Y103H
VL: B6 VL
notes: rabbit 24D9 VH Y103H; chimeric, human constant regions
B16: MYT7920 (antibody, V domains shown)
VH: B6 VH with H101T, N108H
VL: B6 VL
notes: rabbit 24D9 VH N108H; chimeric, human constant regions
B17: MYT7925 (antibody, V domains shown)
VH: B6 VH with H101T, L113H
VL: B6 VL
notes: rabbit 24D9 VH L113H; chimeric, human constant regions
B18: MYT7919 (antibody, V domains shown)
VH: B6 VH with H101T, G107H
VL: B6 VL
notes: rabbit 24D9 VH G107H; chimeric, human constant regions
B19: MYT6111 (antibody, V domains shown)
VH: QEQLEESGGDLVKPGASLTLTCTASGLDFRRTNYICWVRQAPGKGLEWIGCIYIADVVHYYASWAKGRFTFSKTSSTTVTLQMTSLTAADTATYFCARGHDGGFVYGMDLWGPGTLVTVSS
VL: DVVMTQTPASVSEPVGGTVTIKCQASQSIGNYLSWYQQKPGQRPKRLIYSASTLPSGVPSRFKGAGSGTEFTLTISDLESADAATYYCQNNYWLAGYGHPFGGGTEVVVK
notes: chimeric rabbit 15G7 variant (rabbit variable domains, human constant regions); also called 15G7 VH A100H
B20: MYT6117 (antibody, V domains shown)
VH: B19 VH with H100A, Y106H
VL: B19 VL
notes: chimeric rabbit 15G7 variant (rabbit variable domains, human constant regions); also called 15G7 VH Y106H
B21: MYT6116 (antibody, V domains shown)
VH: B19 VH with H100A, V105H
VL: B19 VL
notes: chimeric rabbit 15G7 variant (rabbit variable domains, human constant regions); also called 15G7 VH V105H
B22: MYT6114 (antibody, V domains shown)
VH: B19 VH with H100A, G103H
VL: B19 VL
notes: chimeric rabbit 15G7 variant (rabbit variable domains, human constant regions); also called 15G7 VH G103H
B23: MYT6113 (antibody, V domains shown)
VH: B19 VH with H100A, G102H
VL: B19 VL
notes: chimeric rabbit 15G7 variant (rabbit variable domains, human constant regions); also called 15G7 VH G102H
B24: MYT6112 (antibody, V domains shown)
VH: B19 VH with H100A, D101H
VL: B19 VL
notes: chimeric rabbit 15G7 variant (rabbit variable domains, human constant regions); also called 15G7 VH D101H
B25: MYT6115 (antibody, V domains shown)
VH: B19 VH with H100A, F104H
VL: B19 VL
notes: chimeric rabbit 15G7 variant (rabbit variable domains, human constant regions); also called 15G7 VH F104H

The target in one test is T1, LRRC15 on LRRC15 positive cell lines SAOS2 and G292 (UniProt Q8TF66 22-581, limits assumed).
T1 construct: whole, on cells
T1 sequence (looked up): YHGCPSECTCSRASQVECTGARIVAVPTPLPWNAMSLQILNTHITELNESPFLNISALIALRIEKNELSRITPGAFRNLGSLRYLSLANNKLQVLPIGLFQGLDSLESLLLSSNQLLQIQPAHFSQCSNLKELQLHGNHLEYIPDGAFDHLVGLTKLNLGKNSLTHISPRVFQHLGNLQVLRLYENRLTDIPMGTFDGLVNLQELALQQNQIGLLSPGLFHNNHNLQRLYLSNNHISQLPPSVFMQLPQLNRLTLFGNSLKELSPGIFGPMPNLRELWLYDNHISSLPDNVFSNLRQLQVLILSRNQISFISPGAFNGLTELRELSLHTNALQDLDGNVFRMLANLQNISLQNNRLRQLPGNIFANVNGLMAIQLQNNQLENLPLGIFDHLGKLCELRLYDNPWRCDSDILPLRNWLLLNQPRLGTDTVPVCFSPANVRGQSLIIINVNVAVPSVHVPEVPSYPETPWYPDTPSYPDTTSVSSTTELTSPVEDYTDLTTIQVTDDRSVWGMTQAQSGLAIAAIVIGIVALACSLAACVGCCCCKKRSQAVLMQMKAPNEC
As to the kind of experiment: cell binding on SAOS2 cells (LRRC15 positive), pH 7.4. Set-up: unit not given here.
The molecule B1 yielded an Affinity of 1.71.

B2: the Affinity was 0.352. Same read-out and setting: the value for B3 was 1.58. Consider B4, for which the Affinity came to 0.817. As for B5, the Affinity stood at 7.32.

The next test concerns the target T2, Human LRRC15 Protein, His Tag (Acro Biosystems) (human, UniProt Q8TF66 22-538, limits assumed).
T2 construct: Bought protein with His tag
T2 sequence (looked up): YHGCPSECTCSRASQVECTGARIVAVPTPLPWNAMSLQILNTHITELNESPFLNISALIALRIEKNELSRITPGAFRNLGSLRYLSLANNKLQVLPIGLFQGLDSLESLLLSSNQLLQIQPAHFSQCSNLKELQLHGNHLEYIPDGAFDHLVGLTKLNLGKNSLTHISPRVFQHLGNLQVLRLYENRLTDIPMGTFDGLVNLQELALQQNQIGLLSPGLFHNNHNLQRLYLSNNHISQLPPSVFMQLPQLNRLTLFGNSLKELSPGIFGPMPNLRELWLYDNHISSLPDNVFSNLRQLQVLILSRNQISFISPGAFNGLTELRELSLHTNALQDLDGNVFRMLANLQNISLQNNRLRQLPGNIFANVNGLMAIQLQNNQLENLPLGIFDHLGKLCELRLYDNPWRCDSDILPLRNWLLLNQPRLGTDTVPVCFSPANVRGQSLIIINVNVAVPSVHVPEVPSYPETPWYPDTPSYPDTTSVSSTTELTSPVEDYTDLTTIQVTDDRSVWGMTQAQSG
Nature of the test: BLI; dissociation pH 7.4 black, pH 5.4 grey [2/2); D00014 FIG. 2B (2/2]. A general note: Biolayer interferometry detects binding as a change in optical thickness at a sensor tip.
Consider B6, for which the binding result is reported as “binds”. On the same count and under the same terms, under B7 stands “binds”; under B8, “binds”. In the case of B9, the binding result is on record as “no binding (tested: 50 nM LRRC15)”. Same read-out and setting: the value for B10 was “binds”.

For B11, the binding result is given as “binds”. Turning to B12, the binding result was “binds”. On to B13, for which the binding result is given as “binds”. For B14, the binding result is given as “binds”. As for B15, the binding result is reported as “no binding (tested: 50 nM LRRC15)”. Consider B16, for which the binding result was “no binding (tested: 50 nM LRRC15)”.

Regarding B17, the binding result is reported as “binds”. Consider B18, for which the binding result is reported as “no binding (tested: 50 nM LRRC15)”.

A further test deals with T3, Human LRRC15 Protein, His Tag (Acro Biosystems) (human, UniProt Q8TF66 22-538, limits assumed).
T3 sequence (looked up): T2 sequence (looked up)
As to the kind of experiment: BLI; dissociation pH 7.4 black, pH 5.4 grey [2/2); D00007 FIG. 1E (2/2]. The text has this: For each individual plot, antigen binding proteins were captured on anti-human Fc biosensors and associated with LRRC15 at pH 7.4. Dissociation was at pH 7.4 (black) or pH 5.4 (grey). Major X-axis ticks=100 seconds, with left dashed vertical line=0 seconds. Major Y-axis ticks=0.5 nm and octet plots are shown MYT5712 and MYT6080-MYT6121.
Multiple LRRC15-binding monoclonal antibodies have been described in the literature and can be used as a template for engineering pH-dependent binding. We selected discovery RabMAb clone 15G7 (rabbit VH SEQ ID NO: 378, rabbit VL SEQ ID NO: 451; humanized VH SEQ ID NO: 382, humanized VL SEQ ID NO: 455) as a LRRC15-binding monoclonal antibody for pH-engineering via histidine scanning. […] To generate pH-dependent sequence variants, individual amino acid residues within the heavy chain CDRs were systematically substituted with a histidine (or alanine if H was already present in a given position; e.g., MYT6099), one at a time (rabbit, MYT6080-6121). Desirable mutations were transferred to a humanized framework (humanized, MYT 8387-8411). After allowing for four days of protein expression, cell culture supernatants were collected, quantified by SDS-PAGE analysis, and the pH dependence of the variant was evaluated using biolayer interferometry (BLI) on an Octet RED 96e instrument. Briefly, cell culture supernatants were diluted based on qualitative expression level of the variant determined by visual examination of SDS-PAGE gels, 5 μL of cell culture supernatant was diluted into 195 μL of 1×PBST, pH 7.4 for high expressors, 25 μL of cell culture supernatant was diluted into 175 μL of 1×PBST, pH 7.4 for medium expressors and 100 μL of cell culture supernatant was diluted into 100 μL of 1×PBST, pH 7.4 for low expressors for loading onto the sensor tips.
Take B19: the binding result was “binds”.

Take B20: the binding result is recorded as “binds”. On the same count and under the same terms, under B21 stands “binds”; under B22, “binds”. Take B23: the binding result was “binds”. Consider B24, for which the binding result was “binds”. Still for that read-out and setting: the value for B25 was “binds”.
